Biological target: T1, human Calmodulin-1 (human, UniProt P0DP23 1-149)
T1 construct: also called hCaM-1; hCaM
Test: SPR
Settings: both partners purified

B1: HIV-1 MA clade C (92BR025.8) construct with residue 1-109, lacking the C-terminal helix α5 (domain or fragment)
chain: MGARASILRGGKLDAWERIKLKPGGKKHYMMKHLVWASRELERFALDPGLLETSEGCKQIMKQLQPALQTGTKELISLHNTVATLYCVHEKIDVRDTKEALDKIKEEQN
  binding result: binds

— article PMC8464830 (Biomolecules, 2021)
